Test results taken from article PMC3702667.

Experiments:
[1] = biological target: RECQL5 KIX domain (RECQL5_(515–620)) (human) (UniProt O94762); assay: crystal structure
[2] = biological target: RECQL5 KIX domain (RECQL5_(515–620)) (human) (UniProt O94762); assay: SAXS
[3] = biological target: Fluorescently labeled RECQL5_(1–620) (human) (UniProt O94762); assay: native gel or EMSA
Chain of Fluorescently labeled RECQL5_(1–620) (human) (O94762 1-620): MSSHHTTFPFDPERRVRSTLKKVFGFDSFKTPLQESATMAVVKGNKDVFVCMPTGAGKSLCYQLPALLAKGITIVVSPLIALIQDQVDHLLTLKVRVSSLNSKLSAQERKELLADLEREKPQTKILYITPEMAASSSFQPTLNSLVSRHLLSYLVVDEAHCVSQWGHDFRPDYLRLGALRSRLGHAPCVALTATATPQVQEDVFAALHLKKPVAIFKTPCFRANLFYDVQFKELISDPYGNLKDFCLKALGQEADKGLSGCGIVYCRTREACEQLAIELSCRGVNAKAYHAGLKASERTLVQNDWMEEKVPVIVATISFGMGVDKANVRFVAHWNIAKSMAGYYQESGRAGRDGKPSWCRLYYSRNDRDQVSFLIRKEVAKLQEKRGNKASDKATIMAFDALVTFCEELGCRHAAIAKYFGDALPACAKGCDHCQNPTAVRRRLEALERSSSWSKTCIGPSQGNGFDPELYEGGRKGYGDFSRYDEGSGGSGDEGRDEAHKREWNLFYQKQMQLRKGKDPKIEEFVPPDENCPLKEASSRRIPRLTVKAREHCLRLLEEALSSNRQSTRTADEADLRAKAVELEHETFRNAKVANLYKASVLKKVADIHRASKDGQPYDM

Substance	stoichiometry N [1]	stoichiometry N [2]	Kd [3] [µM]
RECQL5 KIX domain (RECQL5_(515–620)) (from UniProt O94762 515-620) (domain or fragment)	2	2	
human RNA polymerase II (from UniProt P24928;P30876) (complex)			0.04
